Changes are numbered by the printed parent chain. Names and notes keep the numbering of the source.
B1: PR70 (122-490) fused to Cdc6 (70-90) via a flexible linker (other)
chain: SQSIPTFYFPRGRPQDSVNVDAVISKIESTFARFPHERATMDDMGLVAKACGCPLYWKGPLFYGAGGERTGSVSVHKFVAMWRKILQNCHDDAAKFVHLLMSPGCNYLVQEDFVPFLQDVVNTHPGLSFLKEASEFHSRYITTVIQRIFYAVNRSWSGRITCAELRRSSFLQNVALLEEEADINQLTEFFSYEHFYVIYCKFWELDTDHDLLIDADDLARHNDHALSTKMIDRIFSGAVTRGRKVQKEGKISYADFVWFLISEEDKKTPTSIEYWFRCMDLDGDGALSMFELEYFYEEQCRRLDSMAIEALPFQDCLCQMLDLVKPRTEGKITLQDLKRCKLANVFFDTFFNIEKYLDHEQKEQISLLRSTGNASDSSSDSSSSEGDGTVLPPCSPPKQGKKENGPPHSHT
B2: PR70 (108-575), wild type (domain or fragment)
chain: VVQTRKEEPLPPATSQSIPTFYFPRGRPQDSVNVDAVISKIESTFARFPHERATMDDMGLVAKACGCPLYWKGPLFYGAGGERTGSVSVHKFVAMWRKILQNCHDDAAKFVHLLMSPGCNYLVQEDFVPFLQDVVNTHPGLSFLKEASEFHSRYITTVIQRIFYAVNRSWSGRITCAELRRSSFLQNVALLEEEADINQLTEFFSYEHFYVIYCKFWELDTDHDLLIDADDLARHNDHALSTKMIDRIFSGAVTRGRKVQKEGKISYADFVWFLISEEDKKTPTSIEYWFRCMDLDGDGALSMFELEYFYEEQCRRLDSMAIEALPFQDCLCQMLDLVKPRTEGKITLQDLKRCKLANVFFDTFFNIEKYLDHEQKEQISLLRDGDSGGPELSDWEKYAAEEYDILVAEETAGEPWEDGFEAELSPVEQKLSALRSPLAQRPFFEAPSPLGAVDLYEYACGDEDLEPL
B3: PR70 (108-575) F128A (domain or fragment)
chain: B2 chain with F21A
B4: PR70 (108-575) D443K (domain or fragment)
chain: B2 chain with D336K
B5: GST-Cdc6 (18-90) (domain or fragment)
chain: KLSRALNKAKNSSDAKLEPTNVQTVTCSPRVKALPLSPRKRLGDDNLCNTPHLPPCSPPKQGKKENGPPHSHT
B6: PR70 (108-519) (domain or fragment)
chain: VVQTRKEEPLPPATSQSIPTFYFPRGRPQDSVNVDAVISKIESTFARFPHERATMDDMGLVAKACGCPLYWKGPLFYGAGGERTGSVSVHKFVAMWRKILQNCHDDAAKFVHLLMSPGCNYLVQEDFVPFLQDVVNTHPGLSFLKEASEFHSRYITTVIQRIFYAVNRSWSGRITCAELRRSSFLQNVALLEEEADINQLTEFFSYEHFYVIYCKFWELDTDHDLLIDADDLARHNDHALSTKMIDRIFSGAVTRGRKVQKEGKISYADFVWFLISEEDKKTPTSIEYWFRCMDLDGDGALSMFELEYFYEEQCRRLDSMAIEALPFQDCLCQMLDLVKPRTEGKITLQDLKRCKLANVFFDTFFNIEKYLDHEQKEQISLLRDGDSGGPELSDWEKYAAEEYDILVAEETA

What was measured:
[1] = biological target: PP2A catalytic subunit Cα (1-309), methylated (UniProt P67775 1-309, fully methylated by LCMT-1 (residue not stated)); experiment: crystal structure
Sequence of PP2A catalytic subunit Cα (1-309), methylated (P67775 whole entry): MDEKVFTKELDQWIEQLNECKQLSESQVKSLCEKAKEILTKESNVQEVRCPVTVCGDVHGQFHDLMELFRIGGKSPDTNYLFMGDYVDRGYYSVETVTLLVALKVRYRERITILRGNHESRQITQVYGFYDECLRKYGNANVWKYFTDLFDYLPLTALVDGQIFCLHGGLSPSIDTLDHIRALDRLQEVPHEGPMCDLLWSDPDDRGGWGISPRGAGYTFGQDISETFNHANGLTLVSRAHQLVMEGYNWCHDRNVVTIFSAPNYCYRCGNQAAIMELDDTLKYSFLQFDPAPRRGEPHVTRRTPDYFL

[2] = biological target: PP2A scaffold subunit Aα (9-589) (UniProt P30153 9-589); experiment: crystal structure
Sequence of PP2A scaffold subunit Aα (9-589) (P30153 9-589): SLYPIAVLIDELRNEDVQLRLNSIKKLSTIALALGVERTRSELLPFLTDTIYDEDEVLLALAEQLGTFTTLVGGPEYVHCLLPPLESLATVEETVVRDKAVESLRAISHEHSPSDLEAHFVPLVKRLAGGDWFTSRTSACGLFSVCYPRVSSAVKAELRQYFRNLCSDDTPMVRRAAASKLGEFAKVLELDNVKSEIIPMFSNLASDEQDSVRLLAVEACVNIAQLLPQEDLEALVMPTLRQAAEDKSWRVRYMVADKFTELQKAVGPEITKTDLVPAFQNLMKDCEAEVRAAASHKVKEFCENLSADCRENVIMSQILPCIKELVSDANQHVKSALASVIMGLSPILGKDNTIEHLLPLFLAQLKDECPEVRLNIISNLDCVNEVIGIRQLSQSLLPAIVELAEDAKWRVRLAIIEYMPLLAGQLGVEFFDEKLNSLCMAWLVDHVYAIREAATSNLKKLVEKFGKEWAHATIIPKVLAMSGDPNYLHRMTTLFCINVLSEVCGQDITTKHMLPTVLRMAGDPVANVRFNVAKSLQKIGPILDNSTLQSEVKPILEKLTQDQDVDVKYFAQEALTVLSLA

[3] = biological target: PP2A holoenzyme containing PR70 (108-519) (UniProt P30153 9-589; P67775 1-309; Q9Y5P8 108-519); experiment: SEC
Sequence of PP2A holoenzyme containing PR70 (108-519) (P30153 9-589, chain 1 of 2): as the sequence (P30153 9-589) above
Sequence of PP2A holoenzyme containing PR70 (108-519) (P67775 whole entry, chain 2 of 2): as the sequence (P67775 whole entry) above

[4] = biological target: GST-tagged PP2A core enzyme (GST-A bound to PP2Ac) (UniProt P30153 9-589; P67775 1-309); experiment: pull-down
Sequence of GST-tagged PP2A core enzyme (GST-A bound to PP2Ac) (P30153 9-589, chain 1 of 2): as the sequence (P30153 9-589) above
Sequence of GST-tagged PP2A core enzyme (GST-A bound to PP2Ac) (P67775 whole entry, chain 2 of 2): as the sequence (P67775 whole entry) above

PR70 (108-575) R398D = biological target: T1, PR70 (108-575) R398D (UniProt Q9Y5P8 108-575, R398D); experiment: pull-down
T1 sequence: B2 chain with R291D

PR70 (108-575) D443K = biological target: B4; experiment: pull-down
[5] = biological target: B2; experiment: pull-down
PR70 (108-575) F128A = biological target: B3; experiment: pull-down
[6] = biological target: PP2A core enzyme (Aα-Cα heterodimer) (UniProt P30153 9-589; P67775 1-309); experiment: SEC
Sequence of PP2A core enzyme (Aα-Cα heterodimer) (P30153 9-589, chain 1 of 2): as the sequence (P30153 9-589) above
Sequence of PP2A core enzyme (Aα-Cα heterodimer) (P67775 whole entry, chain 2 of 2): as the sequence (P67775 whole entry) above

## B1
[1]
  binding result: binds
[2]
  binding result: binds

## KALPLSPRKRLGDDNLCNTPHLPPCSPPKQGKKENGPPHSHT (domain or fragment) [GST-Cdc6 (49-90)]
[3]
  binding result: binds

## B2
[4]
  binding result: binds

## B3
[4]
  fold reduction of binding affinity against wild-type PR70 (108-575): ~4 fold

## B4
[4]
  fold reduction of binding affinity against wild-type PR70 (108-575): ~2 fold

## B5
PR70 (108-575) R398D
  binding result: binds
PR70 (108-575) D443K
  binding result: binds
[5]
  binding result: binds
PR70 (108-575) F128A
  binding result: binds

## B6
[6]
  binding result: binds

— paper PMC3698643 (Cell Research, 2013)
